Biological target: T1, α-catenin monomer (recombinant full-length mouse α-catenin) (mouse), P26231
T1 chain: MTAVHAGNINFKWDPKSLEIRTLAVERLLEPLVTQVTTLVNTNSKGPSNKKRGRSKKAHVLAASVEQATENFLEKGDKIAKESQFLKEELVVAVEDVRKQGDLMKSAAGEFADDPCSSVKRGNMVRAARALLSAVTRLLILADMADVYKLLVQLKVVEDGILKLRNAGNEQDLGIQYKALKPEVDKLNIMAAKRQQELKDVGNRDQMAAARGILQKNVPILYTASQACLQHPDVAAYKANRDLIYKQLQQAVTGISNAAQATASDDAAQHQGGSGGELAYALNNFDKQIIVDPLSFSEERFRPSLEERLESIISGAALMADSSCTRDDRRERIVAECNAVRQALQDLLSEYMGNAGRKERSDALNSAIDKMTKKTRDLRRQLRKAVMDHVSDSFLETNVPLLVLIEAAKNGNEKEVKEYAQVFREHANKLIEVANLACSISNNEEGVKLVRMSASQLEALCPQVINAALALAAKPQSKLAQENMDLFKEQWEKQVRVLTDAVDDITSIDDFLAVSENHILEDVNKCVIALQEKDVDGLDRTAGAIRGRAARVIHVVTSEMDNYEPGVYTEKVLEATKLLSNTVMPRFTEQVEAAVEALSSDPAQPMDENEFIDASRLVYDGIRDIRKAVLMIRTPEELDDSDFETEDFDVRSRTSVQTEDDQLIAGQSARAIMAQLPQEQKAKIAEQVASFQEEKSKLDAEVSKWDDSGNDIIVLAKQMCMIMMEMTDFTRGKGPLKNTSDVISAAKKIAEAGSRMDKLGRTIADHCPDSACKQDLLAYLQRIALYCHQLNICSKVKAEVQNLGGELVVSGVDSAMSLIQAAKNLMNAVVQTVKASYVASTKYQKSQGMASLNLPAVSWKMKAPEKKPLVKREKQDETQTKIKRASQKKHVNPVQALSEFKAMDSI
Experiment: SEC; Superdex 200 gel filtration at 4°C in 20 mM Tris-HCl pH 8.0, 150 mM NaCl, 2.5 mM DTT, after His-tag affinity chromatography; dimer and monomers
Details: remark: other sources report otherwise

B1: α-catenin monomer (recombinant full-length mouse α-catenin), P26231 1-906 (natural protein)
chain: T1 chain
  stoichiometry N: 2
